Experimental data published in the DeepSol protein solubility set.

assay: soluble on expression in E. coli; label from the status in PepcDB or PDB records

Row | Sequence | soluble on expression in E. coli
1 | MSLTLKLLAEVAGEKVSRFDNKGDIWYDLISAVHKSIRGSNPDAALYWSARMIAAGCDPLYIARRLLAIASEDVGNADPRAMQVALSAWDCFTRVGPAEGERAIAQAIVYLACAPKSNAVYTAWKQALSDAHNLPEFEVPFHLRNAPTGLMKDLGYGEGYRYAHDEPGAYAAGEQYLPAEIDDRKYYQPTNRGLESKIAEKLDYLANLDANSPQKRYEEGHHHHHH | not soluble
2 | MSLTLVTELTPPAASAPPFSDHPDHVIAAVTATIVDLPLRRPHFHATGTHATQSLVMVELVTSGGAVGWGEGGTPGGTAFWGGECVETIKLMIDHYLAPAVIGISVFDQERILAAMDRIAANNHFAKAAIDIAVHDAAARLIGISVSQMFGGTARSTVPVLWALAAAAYEADVADAIEQIEAGRHSVFKIKIGKGDAASETRRALETATTIHDAHPDARFVVDLNQAWDESTAMRWLAAFQERDFLFVEQPVPAWNVEGMIRLASRFEIPIMADEGLWDFHDAYELIRRGATDIYAVKIAKGGGLRRAFKAAAVAEAAGVPLYGGMALESSVGTAAGLQLFSALPNLPFGCELIGPRLLAEDLTVQPIAYRDREVVVPSGVGMGVEIDRDRVRSFTRRNKEGHHHHHH | soluble
3 | MSLTNHQVSYFSLQDVKLLSSPFLQAQQTDLHYILALDPDRLSAPFLREAGLTPKAPSYTNWENTGLDGHIGGHYLSALSMMYAATGDTAIYHRLNYMLNELHRAQQAVGTGFIGGTPGSLQLWKEIKAGDIRAGGFSLNGKWVPLYNIHKTYAGLRDAYLYAHSDLARQMLIDLTDWMIDITSGLSDNQMQDMLRSEHGGLNETFADVAEITGDKKYLKLARRFSHKVILDPLIKNEDRLNGMHANTQIPKVIGYKRVAEVSKNDKDWNHAAEWDHAARFFWNTVVNHRSVCIGGNSVREHFHPSDNFTSMLNDVQGPETCNTYNMLRLTKMLYQNSGDVDNSNKPDPRYVDYYERALYNHILSSQEPDKGGFVYFTPMRPGHYRVYSQPETSMWCCVGSGLENHTKYGEFIYAHQQDTLYVNLFIPSQLNWKEQGVTLTQETLFPDDEKVTLRIDKAAKKNLTLMIRIPEWAGNSKGYEITINGKKHLSDIQTGASTYLPIRRKWKKGDMITFHLPMKVSLEQIPDKKDYYAFLYGPIVLATSTGTENLDGEGHHHHHH | soluble
4 | MSLTNITQCKNRRCGGELGDFTGYIESPNYPGNYPANTECTWTINPPPKRRILIVVPEIFLPIEDDCGDYLVMRKTSSSNSVTTYETCQTYERPIAFTSRSKKLWIQFKSNEGNSARGFQVPYVTYDEDYQELIEDIVRDGRLYASENHQEILKDKKLIKALFDVLAHPQNYFKYTAQESREMFPRSFIRLLRSKVSRFLRPYKEGHHHHHH | not soluble
5 | MSLTNKMIYDQASGLRRLTQPSVTKVISVTGGKGGVGKSNVTLGMAICMAKQGKKVMVLDADLGLANVDVMLGIRPKRNLGHVLAGECELKDAIVEGPHGIRIIPATSGTQSMTELSHAQHVGLIRAFGTLEDEMDILLIDTAAGISDMVVSFSRAAQDVVVVVCDEPTSITDAYALIKLLSKEHQVQRFKIVANMVRSYREGRELFAKLTLVTERFLNVSLELVACIPLDDNVRQAVKRQKIVVDAYPRSPAALAISSLANKALTWPIPRTPSGHLEFFVERLLNRSEGHHHHHH | soluble
6 | MSLTNNLTTKASLVSSAFSPVLVVGKKKELRQPVKIKAVNWHHKKRPVELQVGNFPPERYVLSPGINNIETSIPEVTAPCELPIILKEQGKTVSKINEKATPVKKWTVYLVQHTHTDIGYTKPQTEILSEHLRYIDYAIEYCEQTKDYTNDAKFRWTCESAWAVDEYLKNRPEEQVNKLKKYIAEGQIEVASMYFNMSEIVDENSFKTFLQPVKEFRKHGIPSALAMQNDVNGIAWCLADYLPDLGIKYLWMGEHHYKSQVPFNMPTVFQWESPSGKPILTYRADHYNTGNFWGIEQGDIQKTEPKLLHYLSELERKHYPFDAVGVQYSGYFTDNSPPSIIECKLIREWNEKYAYPKLRSATASEFMDYVTERYGDKIPAYRAEGHHHHHH | soluble
7 | MSLTPMFKTPVVMTIAGSDSGGGAGIAADIKTFAAFGVHGTCAITSVTAQNTTGVLETFDLAPEAVASQIEAVCTDMDVKWAKTGMLASSEIIKEVAKQVKKHNLSLVLDPVMAAEAGGDLLKKEALSVLIKELLPLCKVTTPNASEAGALAGVTVKTHEDAKLAARKIADLGVESVIVTGGHIDATDLLYEPVSGTFTRIPGTFVKGGTHGSGCTYSASMAACLARGDSTETAARKAKTFVEQAILRSVPVGKGVGPVNPLANTLEEKERYLALQDVKEAVSILTYSPDFAKLIPEVGCNIGMAIPCARTYNEIAAVEGRIIRFREKAIPVGYVNFGASQHVARVILAALRENPEMRAAMNVKYSEEILEACREINPGISSFDRAEDPGDASTMEWGTSEAIRKYGGMPEVIYDKGAIGKEPMVRLLGKSASEVAKLAVELARRVKEGHHHHHH | soluble
8 | MSLTPRDHTLILIDYQSQMAFATHSIDIPTLRNNAGLVASAAAGFGVSAILTTVAEKSFSGPMFDEVTAPFPDLRMLDRTSMNTWEDAAVIDRVNQIGKGRIVLAGLWTSVCIVGPALSALDQGFEVYVIADACGDISAEAHERAMQRMVQAGARPITSLQYLLELQRDWARTDTYELTTGIAAKLGGGYGLGIRYAKTMFGGHEGHHHHHH | soluble
9 | MSLTQFASPVLHSLLDTDAYKLHMQQAVFHHYYDVHVAAEFRCRGDDLLGIYADAIREQVQAMQHLRLQDDEYQWLSALPFFKADYLNWLREFRFNPEQVTVSNDNGKLDIRLSGPWREVILWEVPLLAVISEMVHRYRSPQADVAQALDTLESKLVDFSALTAGLDMSRFHLMDFGTRRRFSREVQETIVKRLQQESWFVGTSNYDLARRLSLTPMGTQAHEWFQAHQQISPDLANSQRAALAAWLEEYPDQLGIALTDCITMDAFLRDFGVEFASRYQGLRHDSGDPVEWGEKAIAHYEKLEIDPQSKTLVFSDNLDLRKAVELYRHFSSRVQLSFGIGTRLTCDIPQVKPLNIVIKLVECNGKPVAKLSDSPGKTICHDKAFVRALRKAFDLPHIKKASEGHHHHHH | soluble
10 | MSLTQFKKFAEHISSCFSPSAIQEFSRKSKIVKRKRMFTIDHLLWLCVWQEKNMGDSSLIDMCASLWQQFGIKISPEGLNQRFNEKSTAFLKLLFHSILEKQTPDLAAIQHAYSTHFNRIRILDSTSFQLPNTFSDKYPGNGCLMQLKSAEGHHHHHH | not soluble
11 | MSLTQIENSQYRKHKQKQQHLQHSLTGESKTAIVVFSRSGNTATLSEHIAHKTNGHVYEIFAKSYALGIPGWINALKDARSNVAEIVPQHIDLSSYDTVYLGSPIWLYSPAPPFWQFVKDNDLTNKRVILFNSFNSKFEQHFIDEFAALARAKGATSFEHQYVKRGRMGDQLSTDEMLAAFDHLNPNEGHHHHHH | soluble
12 | MSLTSHLLKAEIHCHLEGAAPPALVVKQAEKYGIDTSGFLRDGQYVWSDFAEFIQCYDAVAQVFKSDEDYAVLTETYLTELAEANTIYSELIISPDHGDRIGLGADAYLAGVAEGIRIAKEKTGIETRIIVTGERHFGPERVIAAAEYAARIRHPLVTGFNMAGEERMGRVADYARAFDIARDAGLGLTIHAGEVCGPESVADALDLVKPSRIGHGVRAIEDAALISRLVETGTVLEVCPGSNIALSVYPDFASHPLKALSDAGVRVCISSDDPPFFFTSLAREYALAADAFGFNDAEINRMTRTALECAFVDEATRERLLARLGDAEGHHHHHH | soluble
13 | MSLTSQPREQFLLISALGPNPMELTTLLCRACVESRCAVVSSRLTRHGEFSALVLQISGSWDALARLEGSLPALTKRGDITLSMTRSNAHVTRAQALPYVAYVSAVYRPDILNELCQFFIDHNIELENLTCDTYQAPHTNTTMLNATITVTLPAGTQISWLRDQFLDFADALNLDALIEPWREGGSHHHHHH | soluble
14 | MSLTTNPVKHTDEHIGALYFSDLPGISNLTCTANYIGGKFWTTAHHCVEGRSRFVGFIEQSDGQYAGIEHVYTKSSDYDIALIKVGSGIDAEQFSLTRSRPAVGKMLEVVGFAVVNPFSSRATMEVTNSNTVANYPMSNLYYKDVFSAKPAGSFPYVISGGDSGAAVWSGETMYGIASGSNGSTKNLAANVGPHVSWIEQTMQNNSNSSPYEILQAFRGGLATSYPKYNQIRDLVDSSEGHHHHHH | not soluble
15 | MSLTTNRTRKAGADSEISDLLKTQSELHGRIAAMAETLGTRQTEMSQTLNQRLDGMSQRLGETLTEQTRSTHENLSRLQERLAVIDAAQGNIQDLAKDVVGLQAILSNKQTRGAFGQARMETLIADALPAGAFQLQPTLSNGYRPDCIIKMPNNAPALVIDAKFPLEAWNAIKADETPETKRAAVQQFRRDMEVHIRDVAEKYLIRGETQDTAFIFVPSESIFADIHQHFEYLVQRAHRARVVIVSPSLLMLSVQVIQSVLKDQRMREQAHLIQGEVALLMDDVRRLDDRTRKLQAHFGLAQKDVDMMLISSDKVLARGQKIEGLDFSPTEKEASHGEIEQTRRFAENRAGAAKLRVVDDEEGHHHHHH | soluble
16 | MSLTTSAHKHPYKIVASDLDGTLLAPNHQLSEFSKQTLKQLHDKGFTFIFATGRHHIDVAGIREIAGIPAYMITSNGARVHDQNDQLMYSKNVPQDLVQAIIDVVKHDKQLFVHLYRNDEWMLNKEDEILRDFHEDSGFTYRVFDVNNAPTDGIAKIFFTQEDQDHEHLVQYETLLNQRFGDKLNVAFSTPWCLEVMCAGVSKGDALQAVAESLHLGLENCIAFGDGMNDVEMLSMAGKGLVMGTAHEKVFNALPDNEVIGSNADDAVAHYLHQHLFEGGSHHHHHH | soluble
17 | MSLTVHATPEPAAHQGVALGSSFYAAMRILPRPQREAMFQVYSFCRFVDDIADSDRPREQRVAELQQWRDDIAALYRGAPPPRLADYQESLRTFGLKREDFEAIIDGMEMDVDADIRAPDEATLDLYCDRVASAVGRLSVRIFGLPEADGIELSHHLGRALQLTNILRDIDEDAGIGRLYLPSELLHKVGITATDPRVVAADSALPSVCAPLVERALAHFAAADKVMNRNPRRVVKAPRIMGKYYYSILQLLIARGFAAPRAPVKLGKASKIAILLQYAIVEGHHHHHH | soluble
18 | MSLTVWKTLEKTNHSQSEILSQLIEESDAIVVGIGAGMSAADGFTYIGPRFEEAFPDFIAKYQLLDMLQASLYDFEDWEEYWAFQSRFVALNYLDQPVGQAYLDLKDILAKKEYHIITTNADNAFAVADYNLEKVFHIQGEYGLWQCSQHCHQQTYRNDQAIRQMIAQQKDMKIPSNLIPKCPKCDQPFEINKRNEEKGMVEDADFHAQRQRYENFLSQHQNDKVLYLEIGVGHTTPQFIKHPFWRFVSLNENSLFVTLNHKHYRIPQKIRSRSVQLTQHIAELIAEAKKEIIGEGHHHHHH | soluble
19 | MSLTWFDLVTPKSVMFFKPFIEELKRRDREVLVTAREGEGYSEVVELLNLYKIPFFNRGGFGGAKLCDKLKASIHRQLELMEFIEQHSIKRLVCLCSVDANRVAFGLGIPIVNFYDIPLSDYKTDFRRALPQARLTLPLSNKAFRPFMVPEEIFFRFGLEHDQIFEYGFLDVVAWLRDFQPSREFYEKVLKDYGLDTSLPTIVVREEEYKASYVMKKYPILYEGLKVLKERLRANILVIPRYEPEAVAELLPFAKVLKEKIVIQHILAYCDLFIGGGGTLNSEACFFGTPTISTRSFVSHYDKFLMDLALMDKVDSIEELIIKAERIIGNRNGYAKQIFDRMEFDVGSMVDEILKEKEGAEGHHHHHH | soluble
20 | MSLVIVAIGCTFAAIPAYRIFCEQTSFGGLTQVAKDFDKIANMKKCEDRLIRVQFNSDVPSSMRWEFKPQQHEIYVHPGETALAFYTARNPTDKPIIGISSYNLTPFQAAYYFNKIQCFCFEEQILNPGEQVDLPVFFYIDPDYVNDPALEYLDSILLSYTFFEAKSGLKLPDPFDPKNRPSIAPSPDKVPEATK | not soluble
